We go through 1 molecule from US20110009342A1, “USES OF PDCD5 POLYPEPTIDE FOR TUMOR CHEMOTHERAPY AND ORGAN PROTECTION” (priority 2008, published 2011).

The test system of assay [1] is U937 cells. Description: cell apoptosis assay, DNR. It is filed as cell-based. The method, then: Methods: Cell apoptosis assay: U937 cells (ATCC), in the logarithmic phase, were maintained in RPMI 1640 (Life Technologies, USA) supplemented with 10% FBS (Hyclone, USA), and were adjusted to a density of 2×10^5 cells/mL and then were divided into control groups and test groups. U937 cells in the control groups were treated with DNR (Pharmacia Italia SPA) alone, with the final concentrations of 0 μg/mL, 0.05 μg/mL, and 0.1 μg/mL. U937 cells in the test groups were treated with DNR of various concentrations combined with PDCD5 of various concentrations, with the final concentrations of PDCD5 being 0 μg/mL, 2.5 μg/mL, and 5 μg/mL, respectively. After being incubated for 24 hours in a 37° C., 5% CO2 and saturatedly humidified incubator, the cells were stained with Annexin-V/PI (Biosea) and then were analyzed for apoptosis with a FACSCalibur flow cytometer.

The test system of assay [2] is U937 cells. Description: colony forming ability (CFA), DNR. The class given is cell-based. Here is the method: (§1) Analysis for colony forming ability (CFA): U937 cells (ATCC), in the logarithmic phase, were maintained in RPMI 1640 medium supplemented with 20% FBS and 0.4% methyl cellulose (Sigma) by the semi-solid colony culture method and were adjusted to a density of 5×10^3 cells/mL. The cells were divided into control groups and test groups, and each group was assayed in triple wells. U937 cells in the control groups were treated with DNR alone, with the final concentrations of 0 ng/mL and 0.5 ng/mL. U937 cells in the test group were treated with DNR of various concentrations combined with PDCD5 of various concentrations, while the final concentrations of PDCD5 were 0 μg/mL, 0.625 μg/mL, 1.25 μg/mL, and 2.5 μg/mL, respectively. After incubation for 14 days in a 37° C., 5% CO2 and saturatedly humidified incubator, a colony with more than 30 cells was counted by an inverted microscope in order to analyze colony forming ability of each group. The colony forming ability was shown as the ratio of average number of colony in each group versus that of the untreated control group in which the final concentrations of DNR and PDCD5 were 0 μg/mL.

Assay [3] has as its system Raji cells. Description: FITC/Annexin-V apoptosis by flow cytometry, DNR. The class given is cell-based. Here is the method:
Methods: Raji cells were cultured in RPMI 1640 medium (Life Technologies, USA) supplemented with 10% Fetal Bovine Serum (FBS, Hyclone, USA). The cells were seeded in 24-well plates with 2×10^5 cells per well. rhPDCD5 was added to each well and the final concentrations were 0 μg/mL, 2.5 μg/mL and 5 μg/mL, respectively. Subsequently, DNR was added and the final concentrations were 0 μg/mL and 0.05 μg/mL, and RPMI 1640 medium supplemented with 10% FBS was added to ensure the system was brought to 1 mL. After 24 h incubation, the cells were stained with FITC/Annexin-V (Beijing Biosea Biotechnology Co., Ltd.) and the apoptosis was detected by flow cytometry.
(In general: In flow cytometry, cells or beads pass a laser one at a time.)

In assay [4] the test system is Raji cells. Briefly: colony-forming ability (CFA) assay, ADM. It is filed as cell-based. The method, then: as §1, with “The colony forming ability was shown as the ratio of average number of colony in each group versus that of the untreated control group in which the final concentrations of DNR and PDCD5 were 0 μg/mL.” left out
Methods: Colony-forming ability (CFA) assay: Raji cells of logarithmic growth phase were cultured, and the method was the same as that in Example 8. […] The numbers of colonies (containing≧30 cells) were counted by inverted microscope to observe the CFA, which is indicated by the ratio of average number of colony formation in each of the test groups versus that of the untreated control group.

For assay [5], the system named is HL-60 cells. Briefly: cell apoptosis assay, As2O3. The class given is cell-based. The method, then: Methods: Cell apoptosis assay: HL-60 cells (ATCC) of logarithmic growth phase were cultured and the density of cells was 2×10^5/mL. The cells were divided into control and test groups. In the control groups, the HL60 cells were treated only with As2O3 (Harbin Yida Pharmaceutical Co., Ltd.), and the final concentration of As2O3 were 0 μg/mL, 0.25 μg/mL and 0.5 μg/mL, respectively. In the test groups, the HL60 cells were treated with As2O3 in the various concentrations combined with PDCD5 in various concentrations, the final concentrations of PDCD5 being 0 μg/mL, 5 μg/mL, 10 μg/mL and 20 μg/mL, respectively. The cells were incubated in a 37° C., 5% CO2 and saturatedly humidified incubator for 24 h, and subsequently were stained with Annexin-V/PI and detected for apoptosis by flow cytometer.

The test system of assay [6] is Jurkat cells. Description: FITC/Annexin-V apoptosis by flow cytometry, DNR. It is filed as cell-based. The method, then: Methods: The density of Jurkat cells were adjusted by RPMI 1640 medium (Life Technologies, USA) supplemented with 10% Fetal Bovine Serum (FBS, Hyclone, USA). […] Subsequently, DNR (Pharmacia Italia S.P.A) was added with its final concentration of 0.05 μg/mL, and RPMI 1640 medium supplemented with 10% FBS was added to ensure the system to be 1 mL. After 24h incubation, the sample was stained with FITC/Annexin-V (Beijing Biosea Biotechnology CO., LTD) and detected for apoptosis by flow cytometry.

Assay [7] relates to 7721 liver cancer cells. The following applies: Li et al. 2000; cited from earlier work.

B1: rhPDCD5: recombinant human programmed cell death 5 protein (SEQ ID NO:1) expressed in E. coli and purified (protein, listed as Homo sapiens)
chain: MADEELEALRRQRLAELQAKHGDPGDAAQQEAKHREAEMRNSILAQVLDQSARARLSNLALVKPEKTKAVENYLIQMARYGQLSEKVSEQGLIEILKKVSQQTEKTTTVKFNRRKVMDSDEDDDY
On to B1, for which the “enhancement of DNR-induced apoptosis” value in assay [1], in assay [3] and in assay [6] was “can significantly enhance DNR-induced apoptosis” each time. In addition, in assay [2], the “enhancement of inhibition of CFA by DNR” value is listed as “can significantly enhance the inhibition of CFA by DNR”. Also, the “effect on the CFA of U937 cells” value in assay [2] (rhPDCD5 alone) was “did not have significant effect”. Further, the “enhancement of inhibition of CFA by ADM” value in assay [4] is given as “can significantly enhance the inhibition of CFA by ADM”. Moreover, the “enhancement of induced apoptosis” value in assay [5] was “can significantly enhance As2O3-induced apoptosis”. In assay [7], the “effect on apoptosis induced by hydroxy camptothecin (HCPT)” value is “could accelerate apoptosis of 7721 liver cancer cells”.
